Measurements as given in patent US6660837B1, “Modified protein derived from protein kinase N” (Kirin Beer Kabushiki Kaisha, priority 1995, dated 2003).
Ends that are not written are not given here.

Columns and labels:
full-length human PKN = full-length human PKN (Homo sapiens, UniProt Q16512); experiment: Co-immunoprecipitation of PKN with HA-tagged α-actinin in COS7 cells; format: cell-based
[1] = target: T1, in vitro translated PKNN2 (Homo sapiens, UniProt Q16512); experiment: In vitro binding of GST-HuActSkl fragments to PKNN2; details: resistant to 0.5% Triton X-100/0.5 M NaCl wash
T1 construct: made in house; host or cells: in vitro translation in rabbit reticulocyte lysate (Promega)
Experimental: In vitro transcription for the N-terminal region of PKN (the amino acid sequence 1-474, this region being designated as PKNN2 (Example 8)) was performed as described in Example 8. For in vitro translation, cRNAs were translated in rabbit reticulocyte lysate (Promega) in the presence of [^35S] methionine as described in Example 8.
(§1) For in vitro binding experiment, 2 μl of in vitro translated PKNN2 was mixed with 5 μg of each GST-α-actinin fusion protein or with 25 μg of GST alone in 400 μl of GST binding buffer (20 mM Tris/HCl at pH 7.5, 0.5 mM DTT, 150 mM NaCl, 0.05% Triton-X100, 1 mM EDTA, 1 μg/ml leupeptin) and incubated for 1 hr at 4° C. After addition of 25 μl of glutathione-Sepharose 4B pretreated with 10 mg/ml of E. coli extract to block nonspecific binding, the binding reaction was continued for additional 30 min at 4° C. The glutathione-Sepharose 4B was then washed four times in GST washing buffer (20 mM Tris/HCl at pH 7.5, 0.5 mM DTT, 1 mM EDTA, 1 μg/ml leupeptin) containing 0.5 M NaCl and 0.5% Triton X-100, and further washed with GST washing buffer. Bound proteins were eluted with GST elution buffer (100 mM Tris/HCl at pH 7.5, 10 mM glutathione, 120 mM NaCl, 1 mM EDTA, 0.5 mM DTT, 1 μg/ml leupeptin) and were subjected to SDS-PAGE. The binding was visualized and quantitated by an imaging analyzer (FUJI BAS1000).

[2] = test system: GST-NF (each subunit) fusion proteins; experiment: In vitro binding of in vitro translated PKN to GST-NF (each subunit); details: GST pull-down
From the text: For in vitro transcription, truncated human PKN was made as follows; Expression vector pPKNN2 for N-terminal region of PKN (the amino acid sequence 1-474 in SEQ ID NO: 1, this region was designated as “PKNN2”) was made by digesting phPKN-H4 (a plasmid containing human PKN cDNA in pBluescript II SK (Mukai, H. & Ono, Y., Biochem. Biophys. Res. Commun. 199, 897-904 (1994)) with Bst EII, and filling in the ends with T4 DNA polymerase, and self-legation. This removed the original amino acid sequences C-terminal downstream of the BstEII site (1425 nucleotides from initiating ATG codon), and a stop codon was created in the plasmid sequence. Fragment coding for the amino acid sequence 614-942 in SEQ ID NO: 1, (This region was designated as “PKNC2”) containing the conserved catalytic domain of human PKN was made by PCR amplification. Expression vector pPKNC2 was made by subcloning this fragment into pRc/CMV (Invitfrogen Corp.). These plasmids were linealized by cutting with XbaI, and CRNA was transcribed using T7 RNA polymerase. For NFL, pBL (Nakagawa, T. et al., J. Cell. Biol. 129, 411-429 (1995)) was linealized by cutting with HindIII, and CRNA was transcribed using T3 RNA polymerase. For in vitro translation, these cRNAs were translated in rabbit reticulocyte lysate (Promega) in the presence of [^35S] methionine. […]

[3] = test system: repeat 20 of rat α-spectrin; experiment: In vitro binding of PKN to α-spectrin repeat 20
Experimental: cDNAs encoding the spectrin-like repeat 3 (the amino acid sequence 479-600) and EF-hand-like region (the amino acid sequence 712-843) of HuActNm were amplified by PCR from human brain cDNA library, and were ligated to pGEX4T vector. cDNAs encoding the spectrin repeat 20 and EF-hand-like region of α-actinin were amplified by PCR from rat brain cDNA library, and were ligated to pGEX4T vector. Expression and purification of GST or GST fusion proteins were performed according to the manufacturer's instruction (Phamacia Biotech Inc.). The eluate from glutathione-Sepharose 4B (Pharmacia Biotech Inc.) was dialyzed overnight against 10 mM Tris/HCl at pH 7.5 containing 1 mM EDTA, 1 mM DTT, and 0.1 μg/ml leupeptin.
Since PKN bound to the repeat 3 of α-actinin, the present inventors have examined whether PKN can bind to the repeat 20 of α-spectrin.

[4] = target: T2, spectrin-like repeat 3 domain of HuActNm (Homo sapiens, UniProt P12814); experiment: In vitro binding of PKNN2 to HuActNm spectrin-like repeat 3
T2 construct: made in house; host or cells: E. coli
Experimental: as §1
(§2) Accordingly, the present inventors have studied whether the in vitro translated PKNN2 could bind to the region of HuActNm corresponding to the PKN-binding site of HuActSkl in the same manner as in Example 25. The HuActNm fragment used in the experiment was prepared according to the following procedure. […]

[5] = target: T3, EF-hand-like domain of HuActNm (Homo sapiens, UniProt P12814); experiment: In vitro binding of PKNN2 to HuActNm EF-hand-like domain
T3 construct: made in house; host or cells: E. coli (GST fusion); rabbit reticulocyte lysate (PKNN2)
Experimental: as §1, §2

α-actinin (HuActSkl) = experiment: Yeast two-hybrid, regions of PKN with HuActSkl; format: binding, human
Experimental: Schemes of the fusion constructs for human PKN, human skeletal muscle type α-actinin (HuActSkl , designated in (Beggs, A., et al., J. Biol. Chem. 267, 9281-9288 (1992)) and non-skeletal muscle type α-actinin (HuActNm, designated in (Beggs, A., et al., J. Biol. Chem. 267, 9281-9288 (1992)) used in this study are shown in FIGS. 41 and 42. Screening of proteins, which bind to the N-terminal region of human PKN (the amino acid sequence 1-540, this region being designated as “PKNNl”), was performed as described in Example 6. Primary positive clones were recovered and retransfected into the original yeast host strain YGH1 (a, ura3-52, his3-200, ade2-101, lys2-801, trpl-901, leu2-3, Can^r, gal4-542, gal80-538, LYS2::gal1uas-gal1tala-HIS3, URA3::gall-lacZ) in combination with the Gal4bd-PKN or the Gal4bd-p53 tumor suppresser. Plasmids that activated marker expression only in the presence of PKN were analyzed further.
The two-hybrid methods was employed to identify the region of PKN that interacted with HuActSkl , and this region was compared with the binding site for RhoA, which binds to PKN, in vitro and in vivo. […] This region corresponds to the second leucine zipperlike sequence and the N-terminal region adjacent thereto, which is conserved through evolution in vertebrates (Mukai, H., et al., Biochim. Biophys. Acta 1261, 296-300 (1995)). […]

RhoA = target: T4, RhoA (Homo sapiens, UniProt P61586); experiment: Yeast two-hybrid, region of PKN with RhoA; format: binding; details: data not shown
T4 construct: expressed in transfected cells; host or cells: yeast (two-hybrid system)
From the text: The two-hybrid methods was employed to identify the region of PKN that interacted with HuActSkl , and this region was compared with the binding site for RhoA, which binds to PKN, in vitro and in vivo. […] This region corresponds to the second leucine zipperlike sequence and the N-terminal region adjacent thereto, which is conserved through evolution in vertebrates (Mukai, H., et al., Biochim. Biophys. Acta 1261, 296-300 (1995)). Thus α-actinin binds to the region distinct from that which binds to Rho.

T3 sequence (P12814 712-843): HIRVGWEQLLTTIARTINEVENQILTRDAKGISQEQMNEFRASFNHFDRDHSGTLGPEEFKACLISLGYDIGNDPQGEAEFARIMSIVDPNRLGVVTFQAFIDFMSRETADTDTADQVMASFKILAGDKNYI
T1 sequence (Q16512 1-474): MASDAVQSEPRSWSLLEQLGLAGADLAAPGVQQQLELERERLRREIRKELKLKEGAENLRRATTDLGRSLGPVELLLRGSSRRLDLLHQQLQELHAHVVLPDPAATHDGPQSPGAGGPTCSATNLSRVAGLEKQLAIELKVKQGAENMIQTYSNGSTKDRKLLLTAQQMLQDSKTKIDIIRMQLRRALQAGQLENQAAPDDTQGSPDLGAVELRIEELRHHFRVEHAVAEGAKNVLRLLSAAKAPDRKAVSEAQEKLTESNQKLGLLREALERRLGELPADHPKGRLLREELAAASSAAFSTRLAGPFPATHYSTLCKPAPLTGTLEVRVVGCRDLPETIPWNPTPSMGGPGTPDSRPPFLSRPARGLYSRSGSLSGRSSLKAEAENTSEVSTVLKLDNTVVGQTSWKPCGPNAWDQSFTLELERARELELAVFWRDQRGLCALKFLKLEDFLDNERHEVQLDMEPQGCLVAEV
T2 sequence (P12814 479-600): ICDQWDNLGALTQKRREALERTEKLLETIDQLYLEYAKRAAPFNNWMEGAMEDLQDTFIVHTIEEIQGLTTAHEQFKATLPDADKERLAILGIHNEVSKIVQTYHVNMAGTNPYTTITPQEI
Sequence of α-actinin (HuActSkl) (P35609 344-894 limits assumed): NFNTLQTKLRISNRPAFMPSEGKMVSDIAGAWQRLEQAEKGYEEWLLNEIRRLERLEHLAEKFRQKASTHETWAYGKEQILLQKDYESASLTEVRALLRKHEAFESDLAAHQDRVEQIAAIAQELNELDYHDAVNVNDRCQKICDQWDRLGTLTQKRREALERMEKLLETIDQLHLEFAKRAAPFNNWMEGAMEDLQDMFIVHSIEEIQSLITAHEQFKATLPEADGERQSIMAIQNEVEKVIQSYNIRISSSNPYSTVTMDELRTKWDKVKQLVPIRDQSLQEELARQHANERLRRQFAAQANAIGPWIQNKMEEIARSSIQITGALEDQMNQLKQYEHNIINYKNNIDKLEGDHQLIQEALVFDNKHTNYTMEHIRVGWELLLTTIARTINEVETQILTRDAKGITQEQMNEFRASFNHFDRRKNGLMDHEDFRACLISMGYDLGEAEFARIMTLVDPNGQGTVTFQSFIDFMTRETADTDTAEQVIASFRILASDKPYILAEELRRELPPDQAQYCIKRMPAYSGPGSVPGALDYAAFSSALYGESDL
T4 sequence (P61586 whole entry): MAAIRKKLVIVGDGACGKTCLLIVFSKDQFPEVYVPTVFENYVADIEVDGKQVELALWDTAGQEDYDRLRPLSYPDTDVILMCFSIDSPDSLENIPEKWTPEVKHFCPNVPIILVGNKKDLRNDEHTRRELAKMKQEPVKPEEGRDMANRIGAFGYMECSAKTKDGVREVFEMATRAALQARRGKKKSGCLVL
Sequence of full-length human PKN (P35609 333-894): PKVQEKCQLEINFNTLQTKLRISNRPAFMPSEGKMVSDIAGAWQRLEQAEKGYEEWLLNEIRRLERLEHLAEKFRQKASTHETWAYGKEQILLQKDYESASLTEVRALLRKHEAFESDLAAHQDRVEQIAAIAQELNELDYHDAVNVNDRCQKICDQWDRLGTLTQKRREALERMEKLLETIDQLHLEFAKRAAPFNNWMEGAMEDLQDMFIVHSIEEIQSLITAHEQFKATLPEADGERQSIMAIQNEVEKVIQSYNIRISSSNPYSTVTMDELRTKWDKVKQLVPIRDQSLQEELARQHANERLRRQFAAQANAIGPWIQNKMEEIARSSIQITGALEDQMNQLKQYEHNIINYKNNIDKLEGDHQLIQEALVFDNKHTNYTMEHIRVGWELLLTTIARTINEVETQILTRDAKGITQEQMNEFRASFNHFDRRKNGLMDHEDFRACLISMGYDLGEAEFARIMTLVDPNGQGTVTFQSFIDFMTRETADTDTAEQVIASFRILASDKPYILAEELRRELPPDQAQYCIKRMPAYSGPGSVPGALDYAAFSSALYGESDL
Sequence of full-length human PKN (Q16512 whole entry, the tested form may be a part): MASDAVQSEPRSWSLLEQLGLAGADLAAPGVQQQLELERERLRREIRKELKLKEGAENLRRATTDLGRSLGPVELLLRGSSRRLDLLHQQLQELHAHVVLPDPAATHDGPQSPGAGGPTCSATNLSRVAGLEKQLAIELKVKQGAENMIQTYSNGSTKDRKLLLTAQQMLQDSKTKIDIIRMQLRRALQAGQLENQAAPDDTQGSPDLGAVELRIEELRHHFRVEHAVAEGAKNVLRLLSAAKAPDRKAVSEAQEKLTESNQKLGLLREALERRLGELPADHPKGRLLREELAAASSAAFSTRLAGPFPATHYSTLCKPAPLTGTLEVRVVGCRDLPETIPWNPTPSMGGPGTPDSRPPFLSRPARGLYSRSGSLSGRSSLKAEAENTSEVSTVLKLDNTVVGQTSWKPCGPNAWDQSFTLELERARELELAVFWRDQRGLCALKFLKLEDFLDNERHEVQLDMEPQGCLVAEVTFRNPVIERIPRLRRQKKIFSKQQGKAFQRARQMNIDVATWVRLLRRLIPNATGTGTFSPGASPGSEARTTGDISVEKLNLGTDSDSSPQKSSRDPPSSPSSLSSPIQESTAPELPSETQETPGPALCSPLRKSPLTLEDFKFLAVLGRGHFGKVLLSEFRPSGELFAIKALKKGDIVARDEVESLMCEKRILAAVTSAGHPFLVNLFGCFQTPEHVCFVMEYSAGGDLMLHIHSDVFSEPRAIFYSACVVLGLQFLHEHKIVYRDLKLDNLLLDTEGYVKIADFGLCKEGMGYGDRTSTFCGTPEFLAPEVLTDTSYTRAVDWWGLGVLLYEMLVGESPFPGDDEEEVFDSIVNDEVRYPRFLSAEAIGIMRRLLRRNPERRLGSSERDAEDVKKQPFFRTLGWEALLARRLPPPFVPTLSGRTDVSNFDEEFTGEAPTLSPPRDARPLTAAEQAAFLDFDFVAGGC

For “HA-tagged α-actinin: influenza HA epitope fused to the amino acid sequence 333-894 of HuActSkl (clone#4)”, the “co-immunoprecipitation of PKN with anti-HA antibody” value (full-length human PKN) was “contained substantially immunoreactive PKN”.
In the case of “HuActSkl (837-894): human skeletal muscle type α-actinin fragment, GST fusion (ILASDKPYILAEELRRELPPDQAQYCIKRMPAYSGPGSVPGALDYAAFSSALYGESDL; also: GST fusion)”, the “binding of in vitro translated PKNN2 to the fragment” value [1] is reported as “not”.
With “PKN: in vitro translated PKN (PKNN2, 1-474) in the binding assays of b333 and b480” the “binding to each subunit of NF at the head-rod domain in vitro” value [2] was “directly bound” and the “in vitro binding to repeat 20 of rat α-spectrin” value [3] was “not detected”.
“PKNN2: N-terminal region of PKN, amino acid sequence 1-474 in SEQ ID NO: 1, in vitro translated” was tested, and the “binding to spectrin-like repeat 3 domain of HuActNm” value [4] was “could bind”, the “binding to EF-hand-like domain of HuActNm” value ([5]; absence of Ca^2+) was “not detected” and the “binding to EF-hand-like region of HuActNm” value ([5]; presence of 1 mM Ca^2+) was “could effectively bind”.
For “amino acid 136-189 of PKN: region of PKN: second leucine zipper-like sequence and adjacent N-terminal region”, the “interaction with α-actinin in two-hybrid system” value (α-actinin (HuActSkl)) was “strongly interacted” and the “interaction with RhoA in two-hybrid system” value (RhoA) was “no interaction was detected”.
